Laboratory results: patent publication US20120331590A1

Assays:
[1] = biological target: BBMV's from FAW (brush border membrane vesicle proteins of Spodoptera frugiperda larval midgut); experiment: homologous competition: unlabeled Cry1Be displacing 0.5 nM 125I Cry1Be from FAW BBMV's
[2] = biological target: BBMV's from FAW (brush border membrane vesicle proteins of Spodoptera frugiperda larval midgut); experiment: heterologous competition: unlabeled Cry1Be against 0.5 nM 125I Cry1Da on FAW BBMV's (the sites that Cry1Da binds, not Cry1Be's own sites)
[3] = biological target: BBMV's from FAW (brush border membrane vesicle proteins of Spodoptera frugiperda larval midgut); experiment: homologous competition: unlabeled Cry1Da displacing 0.5 nM 125I Cry1Da from FAW BBMV's
[4] = biological target: BBMV's from FAW (brush border membrane vesicle proteins of Spodoptera frugiperda larval midgut); experiment: heterologous competition: 1,000 nM unlabeled Cry1Da against 0.5 nM 125I Cry1Be on FAW BBMV's (the sites that Cry1Be binds)

Substance	IC50 [1] [nM]	IC50 [2] [nM]	IC50 [3] [nM]	percent displacement of 125I Cry1Be [4] [%]
Cry1Be (unlabeled, truncated Cry toxin) (from UniProt O85805 35-641) (ligand)	2	> 1000		
Cry1Da (unlabeled, truncated Cry toxin) (from UniProt P19415 28-594) (ligand)			1.5	< 50
